This is an account of results in US20180258175A1 (ABLEXIS, published 2018).

Residue numbers refer to the chain shown, from its start.

To fix the notation:
B1: CCL-337A (antibody, V domains shown)
VH: QVQLQESGPGLVKPSETLSLTCTVSGGSINSYYWSWIRQPAGKGLEWIGRIYTSGNTNYNPSLKSRVTMSVDTSKNLFSLKLSSVTAADTAVYYCARERLTGYFDYWAQGTLVTVSS
VL: not shown
notes: AlivaMab chimeric IgG, human lambda LC
B2: CCL-204A (antibody, V domains shown)
VH: B1 VH with V24I, G26S, N30S, N56S, N60H, L77H, S83T, Y103F, A108G
VL: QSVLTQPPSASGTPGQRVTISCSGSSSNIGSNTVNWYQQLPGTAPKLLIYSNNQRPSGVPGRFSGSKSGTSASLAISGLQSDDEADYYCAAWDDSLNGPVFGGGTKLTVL
notes: as for B1
B3: CCL-205A (antibody, V domains shown)
VH: QVQLQESGPGLVKPSETLSLTCTVSGGSISSYYWSWIRQPAGKGLEWIGRIYISGSIYNNPSLKSRVTMSVDTSKNQFSLKLSSVTAADTAVYYCARDRVGMTFDIWGQGTMVTVSS
VL: not shown
notes: as for B1
B4: CCL-247A (antibody, V domains shown)
VH: B1 VH with G26D, N30S, N56S, L77Q, S83T, L100I, G102S, Y103F, Y106P, A108G
VL: not shown
notes: as for B1
B5: CCL-216A (antibody, V domains shown)
VH: QVQLQESGPGLVKPSETLSLTCTVSGDSISNYYWSWIRQPAGKGLEWIGRIYTSGSTNNNPSLKSRVTMSVDTSKNQFSLKLSSVTAADTAVYYCARERINWFDPWGQGTLVTVSS
VL: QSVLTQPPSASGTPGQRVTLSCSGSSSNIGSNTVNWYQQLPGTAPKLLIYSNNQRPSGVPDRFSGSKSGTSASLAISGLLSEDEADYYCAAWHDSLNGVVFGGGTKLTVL
notes: as for B1
B6: CCL-328A (antibody, V domains shown)
VH: B5 VH with D27G, N31S, N59Y, V71I, E98S, I100L, N101G, W102I, P105Y
VL: not shown
notes: as for B1
B7: CCK-519A (antibody, V domains shown)
VH: not shown
VL: DIVMTQTPLSLPVTPGEPASISCRSSQSLLDSDDGNTYLDWYLQKPGQSPQLLIYTLSYRASGVPDRFSGSGSGTDFTLKISRVEAEDVGVYYCMQRIEFPITFGQGTRLEIK
notes: AlivaMab chimeric IgG, human kappa LC
B8: CCK-465A (antibody, V domains shown)
VH: QVQLQESGPGLVKPSETLSLSCTVSGGSISSYYWSWIRQPAGKGLEWIGRIYTSGSTNYNPSLKSRVTMSVDTSKNQFSLKLSSVTAADTAVYYCARDRSFYGMDVWGQGTTVTVSS
VL: DIQMTQSPSSLSASVGDRVTITCRASQGFSNYLAWYQQKPGKVPKLLIYAASTLQSGVPSRFSGSGSGTDFTLTISSLQPEDVATYYCQKYNSAPLTFGGGTKVEIK
notes: as for B7
B9: CCK-467A (antibody, V domains shown)
VH: EVQLVESGGGLVKPGGSLRLSCAASGFTFSSYSMNWVRQAPGKGLEWVSSISSSSSYIYYADSVKGRFTISRDNAKNSLFLQMNSLRAEDTAVYYCARGGSFPYNWFDPWGQGTLVTVSS
VL: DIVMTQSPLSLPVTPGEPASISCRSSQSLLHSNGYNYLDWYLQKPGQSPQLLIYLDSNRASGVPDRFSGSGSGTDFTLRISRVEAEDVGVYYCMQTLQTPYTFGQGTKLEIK
notes: as for B7
B10: CCK-541A (antibody, V domains shown)
VH: QVQLQESGPGLVKPSETLSLTCTVSGASISTYFWSWLRQPPGKGLEWIGYIFYSGSINYNPSLKSRVTISVDTSKNQFSLELSSVTAADTAVYYCARDRTFYGMDVWGQGTTVTVSS
VL: EIVLTQSPGTLSLPPGERATLSCRASQNVSSTYLAWYHQKPGQAPRLLIYGASSRATGIPDRFSGSGSGTDFTLTISRLEPEDFAVYYCQQYGSSPRTFGQGTKVEIK
notes: as for B7
B11: CCK-418A (antibody, V domains shown)
VH: QVQLQESGPGLVKPSETLSLTCTVSGGSISSYYWSWIRQPAGKGLEWIGRIYTSGTTNFNPSLKSRVTMSVDTSKNQFSLKLSSVTAADTAVYYCATLSGTNWGSPFDYWGQGTLVTVSS
VL: not shown
notes: as for B7
B12: CCK-456A (antibody, V domains shown)
VH: EVHLVESGGGLVKPGGSLRLSCAASGFTFSSYSMNWFRQAPGKGLEWVSSISSSSSYIYYADSVKGRFTISRDNAKNSLSLQMNSLRAEDTAVYYCARAGAVAALYNWFDPWGQGTLVTVSS
VL: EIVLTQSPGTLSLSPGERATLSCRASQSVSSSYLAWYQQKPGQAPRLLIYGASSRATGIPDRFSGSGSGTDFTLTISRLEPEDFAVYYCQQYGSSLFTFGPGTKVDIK
notes: as for B7
B13: CCK-533A (antibody, V domains shown)
VH: QVQLVQSGAEVKKPGASVKVSCKASGYTFTGYYMHWVRQAPGQGLEWMGRINPNSGGTYYAQKFQGRVTMTRDTSISTAYVELSRLRSDDTAVYYCARKNPWGHFDYWGQGTLVTVSS
VL: B7 VL with I102Y, R109K
notes: as for B7
B14: CCK-539A (antibody, V domains shown)
VH: QVQLVESGGGVVQPGRSLRLSCAASGFTFSTFAMHWVRQAPGKGLEWVAVISYDGSNKYYVDSVKGRFTISRDNSKNTLYLQMNSLRAEDTAMYYCARDGTGDALDIWGQGTMVTVSS
VL: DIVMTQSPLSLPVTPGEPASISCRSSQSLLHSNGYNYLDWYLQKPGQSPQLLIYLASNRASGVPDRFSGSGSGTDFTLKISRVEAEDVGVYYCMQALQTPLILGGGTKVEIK
notes: as for B7
B15: CCK-407A (antibody, V domains shown)
VH: QVQLQESGPGLVKPSETLSLTCTVSGGSISSYYWSWIRQPAGKGLEWIGHIFSSGSTNYNPSLKSRVTMSVDTSKSQFSLKLSSVTAADTAVYLCARGGVTWFDPWGQGTLVTVSS
VL: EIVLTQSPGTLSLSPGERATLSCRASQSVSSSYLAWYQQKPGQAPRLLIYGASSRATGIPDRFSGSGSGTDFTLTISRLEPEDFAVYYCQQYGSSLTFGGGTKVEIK
notes: as for B7

One experiment has as its target T1, native CD115 on OCI-AML5 cells (UniProt P07333 20-972, limits assumed).
T1 construct: whole, on cells; cell line endogenous receptor; also called CD115 expressed on OCI-AML5 cells; CD115 expressing AML5 cells
Put plainly: FACS, supernatant on OCI-AML5 cells. For orientation: A flow cytometer gives signals particle by particle.
Take B1: the binding result is given as “binds”.

B2: the binding result is “binds”.

Consider B3, for which the binding result was “binds”.

Take B4: the binding result was “binds”.

In the case of B5, the binding result is on record as “binds”.

In the case of B6, the binding result was “binds”.

The next experiment has as its target T2, human CD115 extracellular domain (Sino Biological 10161-H08H) (human, UniProt P07333 20-517).
T2 construct: extracellular domain; bought recombinant protein; also called huCD115; hu-CD115
Put plainly: competition ELISA, competitor TMR 35A.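 Also: clonal hybridoma supernatant antibodies added to wells after the competitor mouse antibody, lost binding signal puts an antibody in that competitor's epitope bin; low signal means same epitope bin as the mouse competitor antibody.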
Take B7: the “signal vs NO COMP=100” value amounted to 110%.

On to B8, for which the “signal vs NO COMP=100” value turned out to be 88%.

B9: the “signal vs NO COMP=100” value was determined as 83%.

With B10, the “signal vs NO COMP=100” value stood at 111%.

On to B11, for which the “signal vs NO COMP=100” value is 82%.

Regarding B12, the “signal vs NO COMP=100” value stood at 64%.

The next experiment concerns the target T2, human CD115 extracellular domain (Sino …). Briefly: competition ELISA, competitor TMR 20A.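 Also: epitope binning by ELISA, anti-huCD115 hybridoma supernatant antibodies tested for binding to huCD115 with the competitor antibody present, loss of binding placing them in the competitor's bin; low signal means same epitope bin as the mouse competitor antibody.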
In the case of B7, the “signal vs NO COMP=100” value stood at 6%.

Take B8: the “signal vs NO COMP=100” value was 78%.

As for B9, the “signal vs NO COMP=100” value worked out at 96%.

In the case of B10, the “signal vs NO COMP=100” value was determined as 34%.

Regarding B11, the “signal vs NO COMP=100” value was determined as 89%.

For the molecule B12, the “signal vs NO COMP=100” value stood at 73%.

The next experiment has the same target. Put plainly: ELISA, supernatant on huCD115. (In general: In an ELISA, binding on a coated surface is turned into a signal by an enzyme label.)
Regarding B1, the binding result is listed as “binds”.

For the molecule B2, the binding result is “binds”.

On to B3, for which the binding result is given as “binds”.

For B4, the binding result is “binds”.

Consider B5, for which the binding result is listed as “binds”.

On to B6, for which the binding result is listed as “binds”.

Another experiment has the same target. Briefly: competition ELISA, competitor TMR 24A.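 Also: clonal anti-huCD115 hybridoma supernatant antibodies bound with a competitor mouse antibody present, and failure to bind puts a clone in that competitor's epitope bin; low signal means same epitope bin as the mouse competitor antibody.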
Consider B7, for which the “signal vs NO COMP=100” value was determined as 110%.

With B8, the “signal vs NO COMP=100” value was 81%.

As for B9, the “signal vs NO COMP=100” value was 58%.

Regarding B10, the “signal vs NO COMP=100” value is 109%.

As to B11, the “signal vs NO COMP=100” value came out at 35%.

As to B12, the “signal vs NO COMP=100” value stood at 42%.

Another experiment has the same target. Put plainly: competition ELISA, competitor TMR 95A.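 Also: clonal anti-huCD115 hybridoma supernatants tested for binding while a competitor mouse antibody is present, where failure to bind assigns them to that competitor's epitope bin; low signal means same epitope bin as the mouse competitor antibody.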
On to B7, for which the “signal vs NO COMP=100” value is 36%.

Take B8: the “signal vs NO COMP=100” value came out at 41%.

On to B9, for which the “signal vs NO COMP=100” value was 46%.

On to B10, for which the “signal vs NO COMP=100” value is 42%.

Turning to B11, the “signal vs NO COMP=100” value was found to be 10%.

For the molecule B12, the “signal vs NO COMP=100” value was 27%.

The next experiment has the same target. Put plainly: competition ELISA, competitor TMR 100A.
Regarding B7, the “signal vs NO COMP=100” value worked out at 118%.

Take B8: the “signal vs NO COMP=100” value was found to be 92%.

Consider B9, for which the “signal vs NO COMP=100” value was 102%.

Take B10: the “signal vs NO COMP=100” value was 93%.

Take B11: the “signal vs NO COMP=100” value turned out to be 106%.

As for B12, the “signal vs NO COMP=100” value is 96%.

The target is the same in another experiment. Put plainly: SPR ProteOn, supernatant mAb captured on anti-mouse IgG, Hu CD115 analyte.
For B7, the Kd (in general, the concentration at which binding is half-saturated) was 0.86 nM; the koff (in general, a measure of how fast the partners let go of each other) was found to be 7.71e-05 s⁻¹; the on-rate (kon) (commonly a measure of how fast the partners come together) is 90000 M⁻¹ s⁻¹.

In turn, B13 showed a Kd of 0.317 nM, a koff of 3.92e-05 s⁻¹ and a kon of 124000 M⁻¹ s⁻¹.

For B8, the affinity, expressed as Kd, was 1.41 nM; the koff was found to be 0.000749 s⁻¹; the association rate constant (kon) turned out to be 531000 M⁻¹ s⁻¹.

For the molecule B9, the Kd was 0.65 nM, the koff was determined as 1.48e-05 s⁻¹ and the kon stood at 23000 M⁻¹ s⁻¹.

The molecule B10 registered a Kd of 1.4 nM, a koff of 0.000374 s⁻¹ and an association rate constant (kon) of 267000 M⁻¹ s⁻¹.

B14: binding was characterised by a dissociation constant (Kd) of 2.7 nM, the off-rate (koff) was 8.5e-05 s⁻¹ and the association rate constant (kon) is 32000 M⁻¹ s⁻¹.

Take B15: the Kd worked out at 0.95 nM, the koff was determined as 6.54e-05 s⁻¹ and the on-rate (kon) was found to be 69000 M⁻¹ s⁻¹.

Consider B11, for which the Kd is 0.158 nM, the off-rate constant (koff) turned out to be 2.11e-05 s⁻¹ and the kon amounted to 133000 M⁻¹ s⁻¹.

As to B12, binding was characterised by a dissociation constant (Kd) of 1.97 nM, the koff came out at 5.3e-05 s⁻¹ and the association rate constant (kon) stood at 27000 M⁻¹ s⁻¹.

The target is the same in another experiment. Put plainly: competition ELISA, competitor TMR 44B.
As to B7, the “signal vs NO COMP=100” value turned out to be 12%.

As to B8, the “signal vs NO COMP=100” value was determined as 8%.

As for B9, the “signal vs NO COMP=100” value was 22%.

For B10, the “signal vs NO COMP=100” value is 15%.

For the molecule B11, the “signal vs NO COMP=100” value was 3%.

As to B12, the “signal vs NO COMP=100” value came to 27%.
